Experimental data reported in patent US10124035B2, “DISC-1 pathway activators in the control of neurogenesis” (Massachusetts Institute of Technology, priority 2008, dated 2018).

Columns and labels:
[1] = system: TCF reporter in 293T cells; assay: TCF reporter activity in DISC1 knockdown 293T cells with Wnt3a conditional medium; format: cell-based; conditions: 16 hours
Procedure: Primary neural stem cells from E14 brains were infected with control or DISC1 shRNA lentiviruses. 48 hours after to transduction, cells were treated with vehicle or SB-216763 (5 μM) for 16 hours and then pulsed with 10 μM BrdU for 2 hours. Shown is percentage of GFP and BrdU double positive cells to total GFP positive cells (n=3, p<0.05). b. […] 1.5 μg of vector or WT-DISC1 was cotransfected with 0.5 μg control or DISC1 shRNA-2, 0.1 μg TCF reporter, and 10 ng pRL-TK vector into 293T cells. 48 hours after transfection, Wnt3a conditional medium with vehicle, SB-216763, or AR-A104418 was added for another 16 hours.
• Mice. Swiss Webster pregnant female mice were purchased from Taconic (Hudson, N.Y.). • Cell Culture. AHPs were kindly provided by Dr. Gage (Lie, D. C. et al. Wnt signaling to regulates adult hippocampal neurogenesis. Nature 437, 1370-5 (2005)) and cultured under conditions described previously (Palmer, T. D., Takahashi, J. & Gage, F. H. The adult rat hippocampus contains primordial neural stem cells. Mol Cell Neurosci 8, 389-404 (1997)). Primary neural progenitors were isolated from E14 mouse embryos and cultured as described previously (Sanada, K. & Tsai, L. H. G protein betagamma subunits and AGS3 control spindle orientation and asymmetric cell fate of cerebral cortical progenitors. Cell 122, 119-31 (2005)). N2a and 293T cells were cultured in DMEM medium containing 10% FBS, L-glutamine, and penicillin/streptomycin. Wnt3a expressing L cells and untransfected L cells were obtained from ATCC (Manassas, Va.). Wnt3a conditional medium was produced according to the ATCC protocol. To induce AHP differentiation, FGF2 was removed from the culture medium and 1 μM retinoic acid/1% FBS was added to the medium for 4 days. • Reagents. Recombinant Wnt3a protein was obtained from Chemicon (Rosemont, Ill.). FGF2 was obtained from PeproTech (Rocky Hill, N.J.). Recombinant GST-GSK3β was obtained from Active Motif (Carlsbad, Calif.). Recombinant GST-β-catenin and GST-axin were obtained from Millipore (Billerica, Mass.). […]

[2] = system: neural progenitors in embryonic mouse brains; assay: In utero electroporation of shRNA into E13 embryonic mouse brains; format: in vivo
Description: (§1) • Mice. Swiss Webster pregnant female mice were purchased from Taconic (Hudson, N.Y.). • Cell Culture. AHPs were kindly provided by Dr. Gage (Lie, D. C. et al. Wnt signaling to regulates adult hippocampal neurogenesis. Nature 437, 1370-5 (2005)) and cultured under conditions described previously (Palmer, T. D., Takahashi, J. & Gage, F. H. The adult rat hippocampus contains primordial neural stem cells. Mol Cell Neurosci 8, 389-404 (1997)). Primary neural progenitors were isolated from E14 mouse embryos and cultured as described previously (Sanada, K. & Tsai, L. H. G protein betagamma subunits and AGS3 control spindle orientation and asymmetric cell fate of cerebral cortical progenitors. Cell 122, 119-31 (2005)). N2a and 293T cells were cultured in DMEM medium containing 10% FBS, L-glutamine, and penicillin/streptomycin. Wnt3a expressing L cells and untransfected L cells were obtained from ATCC (Manassas, Va.). Wnt3a conditional medium was produced according to the ATCC protocol. To induce AHP differentiation, FGF2 was removed from the culture medium and 1 μM retinoic acid/1% FBS was added to the medium for 4 days. • Reagents. Recombinant Wnt3a protein was obtained from Chemicon (Rosemont, Ill.). FGF2 was obtained from PeproTech (Rocky Hill, N.J.). Recombinant GST-GSK3β was obtained from Active Motif (Carlsbad, Calif.). Recombinant GST-β-catenin and GST-axin were obtained from Millipore (Billerica, Mass.). The GSK313 inhibitor, SB-216763, AR-A104418 and His-GSK3β, were obtained from Sigma-Aldrich (Sigma-Aldrich, St. Louis, Mo.). L803-MTS was obtained from Calbiochem (San Diego, Calif.). GST-AKT1 was obtained from Cell Signaling (Beverly, Mass.). GST-CASK-1 (CASK fragment from 316-415aa), GST-CASK-2 (CASK fragment from 777-974aa), and GST-p25 proteins were kindly provided by Dr. B. A. Samuels. Mouse DISC1 peptidel (40-78aa: GYMRSTAGSG IGFLSPAVGMPHPSSAG LTGQQSQHSQS; SEQ ID NO: 1) and Mouse DISC1 peptide 2 (195-238aa, […] GERGEAEGCLPSREAE; SEQ ID NO: 2) were synthesized by Chi Scientific (Maynard, Mass.). • Antibodies. The primary antibodies used in this study were the following: rabbit anti-DISC1 C-terminal antibody, mouse and rabbit anti-GFP antibodies (Invitrogen, Carlsbad, Calif.); affinity purified rabbit anti-DISC1 antibody (Novus, Littleton, Colo.) for immunohistochemistry; mouse anti-FLAG and mouse anti-Actin antibody; mouse anti-GSK3β antibody, mouse anti-β-catenin antibody, mouse anti-pY216 GSK3β antibody, and mouse anti-nestin antibody (BD Biosciences, San Diego, Calif.); rabbit anti-[…] β-catenin antibody, rabbit anti-pS9 GSK3β antibody, and mouse anti-cyclin to D1 antibody (Cell Signaling); mouse anti-Dv12 antibody, mouse anti-HA antibody, mouse anti-GST antibody, mouse anti-ubiquitin antibody, and rabbit anti-β-catenin antibody (Santa Cruz, Santa Cruz, Calif.); mouse Tuj-1 antibody (BABCO, Harrisburg, Pa.); mouse anti-BrdU antibody (DakoCytomation, Glostrup, Denmark); guinea pig anti-doublecortin antibody (Chemicon, Rosemont, Ill.); chicken anti-GFP antibody (Ayes Labs, Tigard, Oreg.); rabbit anti-pS10 Histone H3 antibody (Upstate, Lake Placid, N.Y.). • Constructs. The sequences for shRNAs targeting DISC1 are as follows: control shRNA: 5′-CGGCTGAAACAAGAGTTGG-3′ (SEQ ID NO:3); DISC1 shRNA-1: 5′-GGCAAACACTGTGA AGT GC-3′ (SEQ ID NO:4); DISC1 shRNA-2: 5′-[…]-3′ (SEQ ID NO:5)(Kamiya A. et al. A schizophrenia-associated mutation of DISC1 perturbs cerebral cortex development. Nat. Cell Biol 7, 1167-78 (2005)). DISC1 shRNA-1 recognizes both rat and mouse DISC1. […]

AHPs = assay: Immunoblot of β-catenin and cyclin D1 in transduced AHPs; format: cell-based
Description: • Mice. Swiss Webster pregnant female mice were purchased from Taconic (Hudson, N.Y.). • Cell Culture. AHPs were kindly provided by Dr. Gage (Lie, D. C. et al. Wnt signaling to regulates adult hippocampal neurogenesis. Nature 437, 1370-5 (2005)) and cultured under conditions described previously (Palmer, T. D., Takahashi, J. & Gage, F. H. The adult rat hippocampus contains primordial neural stem cells. Mol Cell Neurosci 8, 389-404 (1997)). Primary neural progenitors were isolated from E14 mouse embryos and cultured as described previously (Sanada, K. & Tsai, L. H. G protein betagamma subunits and AGS3 control spindle orientation and asymmetric cell fate of cerebral cortical progenitors. Cell 122, 119-31 (2005)). N2a and 293T cells were cultured in DMEM medium containing 10% FBS, L-glutamine, and penicillin/streptomycin. Wnt3a expressing L cells and untransfected L cells were obtained from ATCC (Manassas, Va.). Wnt3a conditional medium was produced according to the ATCC protocol. To induce AHP differentiation, FGF2 was removed from the culture medium and 1 μM retinoic acid/1% FBS was added to the medium for 4 days. • Reagents. Recombinant Wnt3a protein was obtained from Chemicon (Rosemont, Ill.). FGF2 was obtained from PeproTech (Rocky Hill, N.J.). Recombinant GST-GSK3β was obtained from Active Motif (Carlsbad, Calif.). Recombinant GST-β-catenin and GST-axin were obtained from Millipore (Billerica, Mass.). The GSK313 inhibitor, SB-216763, AR-A104418 and His-GSK3β, were obtained from Sigma-Aldrich (Sigma-Aldrich, St. Louis, Mo.). L803-MTS was obtained from Calbiochem (San Diego, Calif.). GST-AKT1 was obtained from Cell Signaling (Beverly, Mass.). GST-CASK-1 (CASK fragment from 316-415aa), GST-CASK-2 (CASK fragment from 777-974aa), and GST-p25 proteins were kindly provided by Dr. B. A. Samuels. Mouse DISC1 peptidel (40-78aa: GYMRSTAGSG IGFLSPAVGMPHPSSAG LTGQQSQHSQS; SEQ ID NO: 1) and Mouse DISC1 peptide 2 (195-238aa, […] GERGEAEGCLPSREAE; SEQ ID NO: 2) were synthesized by Chi Scientific (Maynard, Mass.). • Antibodies. […]

GSK3β [3] = target: T1, GSK3β (Homo sapiens, UniProt P49841); assay: GSK3β SPR (surface plasmon resonance) binding assay; conditions: for percent theoretical maximal response (binding to GSK3β): concentration of 25 μM
T1 construct: GST; purchased Active Motif (Carlsbad, Calif.)
T1 sequence (P49841 whole entry): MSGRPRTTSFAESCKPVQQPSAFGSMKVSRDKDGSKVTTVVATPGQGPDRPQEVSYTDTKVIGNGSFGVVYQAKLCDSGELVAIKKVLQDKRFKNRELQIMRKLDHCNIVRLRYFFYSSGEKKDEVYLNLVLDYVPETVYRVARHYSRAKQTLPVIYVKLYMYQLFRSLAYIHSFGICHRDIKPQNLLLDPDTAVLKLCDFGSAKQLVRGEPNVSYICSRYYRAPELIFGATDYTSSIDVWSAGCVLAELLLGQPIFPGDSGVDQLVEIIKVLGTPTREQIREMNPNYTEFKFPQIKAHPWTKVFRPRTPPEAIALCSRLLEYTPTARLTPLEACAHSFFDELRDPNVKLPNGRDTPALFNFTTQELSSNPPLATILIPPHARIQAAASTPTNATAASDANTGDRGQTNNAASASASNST
Procedure: FIG. 16B is a schematic of overlapping 15-mer peptides that covered peptide 2 and a graph showing the ability of the peptides to bind to GSK3β.
Surface plasmon resonance (SPR) was used to determine whether peptide 2 directly binds to GSK3β. GSK3β SPR binding assays were carried out with peptide 1, peptide 2, the GSK3β inhibitor L803-MTS, and as a negative control, a peptide from the N-type calcium channel, CACNA1B (FIG. 6A). […] To identify the peptide 2 sequences that mediate this interaction with GSK3β, we designed overlapping 15-mer peptides that covered peptide 2 and tested their binding to GSK3β SPR (FIG. 16B).

GSK3β [4] = target: T1, GSK3β; assay: GSK3β in vitro kinase assay (β-catenin/axin phosphorylation, Y216 autophosphorylation); format: biochemical; conditions: for inhibition of GSK3β / inhibition of GSK3β kinase activity by peptides: in vitro kinase assay; for inhibition of GSK3β kinase activity by peptides: dose-response or comparison
Description: as §1

[5] = electroporated at E13, analyzed 3 days later

Q: What does the source list for COc1ccc(CNC(=O)Nc2ncc([N+](=O)[O-])s2)cc1 [AR-A014418]?
A: TCF reporter activity in DISC1 knockdown cells [1]: rescued TCF activity in DISC1 knockdown cells to control levels; TCF reporter activity in DISC1 knockdown cells ([1]; listed as AR-A104418): rescues the TCF activation defect caused by DISC1 knockdown

Q: With “DISC1 shRNA-2: shRNA targeting human, rat and mouse DISC1, SEQ ID NO:5, in pLentiLox 3.7 vector (GCAGGAGGTCAGCAAGGCCTTG)” as the molecule, how does the BrdU labeling ([2]; BrdU 2 hours prior to collection) read?
A: 15.9±2.2%

Q: What about the “cell cycle exit index” value ([2]; electroporated E13, BrdU at E15, collected E16) of the same molecule?
A: 66.5±13.2%

Q: What about the “GFP+Dcx+ cells” value ([2]; electroporated E13, sacrificed E16, SVZ) of the same molecule?
A: 42.3±5.8%

Q: And the “GFP positive cells in the VZ/SVZ” value [2, 5]?
A: 10%

Q: And the “GFP positive cells in the cortical plate” value [2, 5]?
A: 62%

Q: And the mitotic index ([2]; pH3, electroporated E13, sacrificed E15)?
A: 3.5±0.8%

Q: And the “reduction of Cyclin D1 levels” value (AHPs)?
A: 70%

Q: What about the β-catenin levels (AHPs) of the same molecule?
A: 19 % to control

Q: Which “percent theoretical maximal response (binding to GSK3β)” value (GSK3β [3]) does the source give for “peptide 1: Mouse DISC1 peptide, 40-78aa, SEQ ID NO: 1, synthesized by Chi Scientific (GYMRSTAGSGIGFLSPAVGMPHPSSAGLTGQQSQHSQS; listed as Mus musculus)” here?
A: 62%

Q: And the “inhibition of GSK3β” value (GSK3β [4]; at 80 μM)?
A: did not inhibit GSK3β

Q: And the “inhibition of GSK3β kinase activity by peptides” value (shortened to “inhibition … by peptides”) (GSK3β [4]; no single concentration)?
A: did not inhibit GSK3β activity

Q: “peptide 2: Mouse DISC1 peptide, 195-238aa, PADIASLPGFQDTFTSSFSFIQLSLGAAGERGEAEGCLPSREAE, SEQ ID NO: 2 (listed as Mus musculus)” was tested. Which “percent theoretical maximal response (binding to GSK3β)” value (GSK3β [3]) did it give?
A: 197%

Q: And the “inhibition of GSK3β” value (GSK3β [4]; at 1 μM)?
A: did not inhibit GSK3β

Q: And the “inhibition of GSK3β” value (GSK3β [4]; at 10 μM)?
A: inhibited GSK3β

Q: And the “inhibition … by peptides” value (GSK3β [4]; no single concentration)?
A: inhibited GSK3β more potently than the commercial GSK3β peptide inhibitor, L803-MTS

Q: What about the “inhibition … by peptides” value (GSK3β [4]; no single concentration, listed as DISC1 peptide 1(195-238aa)) of the same molecule?
A: dose-dependent

Q: And the “inhibition … by peptides” value (GSK3β [4]; no single concentration, listed as Peptide 195-238)?
A: inhibited GSK3β in a dose-dependent manner more potently than the commercial peptide inhibitor, L803-MTS

Q: For “peptide 3: 15-mer peptide that encompasses mDISC1 amino acids 211 to 225 (SFSFIQLSLGAAGER; listed as Mus musculus)”, which “percent maximal binding to GSK3β” value (GSK3β [3]; 15-mer peptide) is on record?
A: 238%

Q: What about the “binding to GSK3β” value (GSK3β [3]; result in words) of the same molecule?
A: bound to GSK3β

Q: And the “inhibition … by peptides” value (GSK3β [4]; no single concentration)?
A: failed to inhibit GSK3β kinase activity

B1: DISC1 fragment 221-355: GST-tagged mouse DISC1 protein fragment, amino acids 221-355 (protein, UniProt Q811T9 221-355, looked up, fragment)
chain: AAGERGEAEGCLPSREAEPLHQRPQEMAAEASSSDRPHGDPRHLWTFSLHAAPGLADLAQVTRSSSRQSECGTVSSSSSDTGFSSQDASSAGGRGDQGGGWADAHGWHTLLREWEPMLQDYLLSNRRQLEVTSLI
modifications: GST tag
Q: B1 was tested. Which “inhibition of GSK3β autophosphorylation (Y216)” value (GSK3β [4]; GST-DISC1 fragments at 2 μM) did it give?
A: started to inhibit GSK3β autophosphorylation

Q: And the “inhibition of GSK3β activity by DISC1 fragments” value (GSK3β [4]; no single concentration, dose dependence, rank)?
A: able to inhibit GSK3 activity
